Article PMC9520665, “Chaperonin containing TCP-1 (CCT/TRiC) is a novel therapeutic and diagnostic target for neuroblastoma” (Frontiers in Oncology, 2022)
Where no end group is shown, it is not given here.

Assays:
full-length HIS-CCT2 = target: T1, full-length HIS-CCT2 (human, UniProt P78371-1 1-535); test: pull-down; 0.1-50 nmol biotin-CT20p (or biotin alone) mixed with 0.1 nmol recombinant CCT2 protein in 20 mM Tris-HCl, 3 h at room temperature, then overnight at 4°C with streptavidin-agarose beads; immunoblot for CCT2; settings: both partners purified
T1 construct: CCT2, second subunit of chaperonin containing TCP-1 (CCT/TRiC); The species is stated for CCT2 in general (human), not for the recombinant construct; also called recombinant full-length CCT2 protein; CCTβ; source: E. coli BL21 (DE3) and Rosetta, purified (Ni-NTA, SEC)
T1 sequence (looked up): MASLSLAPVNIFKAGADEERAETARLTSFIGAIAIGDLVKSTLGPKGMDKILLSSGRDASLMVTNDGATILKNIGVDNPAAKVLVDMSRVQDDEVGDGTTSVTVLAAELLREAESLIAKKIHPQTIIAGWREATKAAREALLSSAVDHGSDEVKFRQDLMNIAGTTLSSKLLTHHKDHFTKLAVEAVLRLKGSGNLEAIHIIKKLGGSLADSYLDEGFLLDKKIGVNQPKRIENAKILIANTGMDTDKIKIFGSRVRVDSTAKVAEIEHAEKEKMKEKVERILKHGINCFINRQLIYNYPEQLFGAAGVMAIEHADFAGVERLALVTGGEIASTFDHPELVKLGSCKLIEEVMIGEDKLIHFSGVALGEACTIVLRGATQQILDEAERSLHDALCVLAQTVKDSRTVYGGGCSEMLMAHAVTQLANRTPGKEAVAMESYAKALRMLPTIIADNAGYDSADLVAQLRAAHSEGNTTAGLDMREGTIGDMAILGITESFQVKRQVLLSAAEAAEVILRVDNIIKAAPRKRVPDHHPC

CCT2(17-526) = target: T2, CCT2(17-526) (human, UniProt P78371-1 17-526); test: as above; settings: both partners purified
T2 construct: CCT2 truncation that retains more of the equatorial domain; A TEV protease site replaced the thrombin site between GST and CCT2
T2 sequence (looked up): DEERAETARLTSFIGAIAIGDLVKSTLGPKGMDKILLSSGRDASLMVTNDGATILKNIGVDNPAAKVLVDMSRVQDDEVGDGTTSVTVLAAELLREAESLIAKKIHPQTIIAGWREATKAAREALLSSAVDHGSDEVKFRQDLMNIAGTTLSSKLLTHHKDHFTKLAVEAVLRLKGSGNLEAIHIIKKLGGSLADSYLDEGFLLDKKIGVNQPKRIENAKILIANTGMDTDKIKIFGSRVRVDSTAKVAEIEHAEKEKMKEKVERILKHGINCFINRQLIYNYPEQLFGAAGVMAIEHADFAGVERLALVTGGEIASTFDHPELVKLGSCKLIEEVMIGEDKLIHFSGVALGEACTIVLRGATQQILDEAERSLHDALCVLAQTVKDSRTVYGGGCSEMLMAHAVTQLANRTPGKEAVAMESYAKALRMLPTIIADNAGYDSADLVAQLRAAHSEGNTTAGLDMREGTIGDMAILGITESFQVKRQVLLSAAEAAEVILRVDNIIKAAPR

B1: biotinylated CT20p (peptide)
peptide: VTIFVAGVLTASLTIWKKMG
modifications: also: biotin, position not given here
notes: 20 amino acid amphipathic peptide derived from the C-terminus of the apoptotic protein Bax; also called biotin-CT20p; source: synthetic peptide, commercially synthesized (BioPeptides Inc)
**Q.** Which results are given for B1?
**A.** binding result (full-length HIS-CCT2): binds; binding result (CCT2(17-526)): binds
